Earlier results in PMC9180016.

Tests used:
[1] = biological target: p66Shc (Homo sapiens) (UniProt P29353)
[2] = biological target: cytochrome c (UniProt P99999)
Sequence of UniProt P99999 (P99999 2-105): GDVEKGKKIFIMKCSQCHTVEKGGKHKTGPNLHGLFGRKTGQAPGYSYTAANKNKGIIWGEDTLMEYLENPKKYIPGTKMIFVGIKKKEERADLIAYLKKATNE

Row | Ki [2] [nM] | Substance | Kd [1] [nM]
1 | – | Mortalin (from UniProt P38646) | 858
2 | 1430 | p66Shc (from UniProt P29353) | –
